Experimental data published in US20240075137A1.
pKd: −log10 of the molar value. Blank lines part the entries; values can stand above or below the substance they belong to.

Columns and labels:
mPVRL2 HIS (mouse) [1] = biological target: mPVRL2 HIS (mouse) (UniProt P32507); assay: ELISA: soluble receptor Fc titrated on immobilized mPVRL2 HIS
[2] = biological target: mPVR (recombinant protein) (mouse); assay: SPR/ELISA with recombinant proteins
mPVRL2 HIS (mouse) [3] = biological target: mPVRL2 HIS (mouse) (UniProt P32507); assay: ELISA: mPVRIG-mFc titrated on mPVRL2
[4] = biological target: human TIGIT on cells (human) (UniProt Q495A1); assay: FACS blocking: Expi293 human TIGIT cells pre-incubated with mAb, then human PVR-m2aFc; lower gMFI = more blocking
human TIGIT on cells (human), sequence (Q495A1 22-141): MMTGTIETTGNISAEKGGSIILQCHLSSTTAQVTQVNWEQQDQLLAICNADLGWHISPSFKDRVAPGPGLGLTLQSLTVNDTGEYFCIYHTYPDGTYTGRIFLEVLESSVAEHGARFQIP

[5] = biological target: human TIGIT on cells (human) (UniProt Q495A1); assay: FACS titration on Expi293 human TIGIT over-expressing cells (gMFI OE:Parental); ± 95% CI; 'Fit: Fair/Good'
[6] = biological target: human TIGIT on cells (human) (UniProt Q495A1); assay: FACS, Expi293 human TIGIT over-expressing cells

mPVRL2 HIS (mouse), sequence (P32507 32-351 limits assumed): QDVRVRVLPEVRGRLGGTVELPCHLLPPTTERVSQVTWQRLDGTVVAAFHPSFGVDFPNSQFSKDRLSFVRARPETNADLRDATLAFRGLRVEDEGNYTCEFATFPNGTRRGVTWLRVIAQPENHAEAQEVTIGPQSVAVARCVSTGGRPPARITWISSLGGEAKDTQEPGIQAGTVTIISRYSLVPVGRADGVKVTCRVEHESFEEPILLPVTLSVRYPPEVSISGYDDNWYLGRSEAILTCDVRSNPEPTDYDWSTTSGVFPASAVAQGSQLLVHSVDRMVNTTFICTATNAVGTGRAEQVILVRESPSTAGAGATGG

EC50 (read off the curve) (mPVRL2 HIS (mouse) [1]): 2 nM
fold lower affinity than the interaction with mPVRL2 [2]: 10 fold
EC50 (read off the curve) (mPVRL2 HIS (mouse) [3]): 2 nM
Substance: mouse PVRIG-Fc fusion protein

gMFI of bound PVR-m2aFc at 266 pM mAb [4]: 959
gMFI of bound PVR-m2aFc at 1.3 nM mAb [4]: 964
gMFI of bound PVR-m2aFc at 6.7 nM mAb [4]: 828
Substance: Synagis hIgG4 (antibody)

pKd [5]: 8.07
EC90 [6]: 158 nM
Substance: human PVR-m2aFc (Compugen) (from UniProt P15151 21-343) (Fc fusion)
